Source: the DeepSol protein solubility set

assay: soluble on expression in E. coli; label from the status in PepcDB or PDB records

With “AHHHHHHGSLPKNYDPNEIEPKWQKYWLEEKIYKYKLEPDKPSYAIDTPPPFTSGTLHLGHVLSHTWIDIIARYKRMRGYNVLFPQGFDNHGLPTELKVEKEFGISKDQPEEFLKKCIEWTWQAIEKMRAQFIRIGYSADWDLEYHTMDDWYKAAVQKSLLDFYKKGLIYREEHPVYWCPRCRTSLAKAEVGYVEEEGYLYYIKLPLADGSGYIPIATTRPELMPACVAVFVHPDDERYKHLVGKKVKLPIYEREVPILADEDVDPNFGTGAVYNCTYGDEQDIVWQKRYNLPVIIAINEDGTMNENAGPYAGLKIEEARKKIAEDLEKMGLLYKKEKITHRVLRHTERSSCMAPIELLPKKQWFIKVREFTDDIVEVAKKINWYPEDMFLRLKDWAESMDWDWVISRQRVFGTPIPFWICKNGHIIPAREEDLPVDPRFDKPPVEKCPVCGAEIEPVTDVLDCWVDSSITPLIITKWHEAIKGDEEAKKWFEHNFPTALRPQGTDIIRTWAFYTIFRTYMLTGEKPWNDIVINGMVAGPDGRKMSKSYGNVVSPEEVIPKYGADALRLWTALAPPGEDHPFKWEIVDYNFRFLQKLWNIYRFAERHIKDFDYEKYKHIELEPLDRWILSRLHRIIKFATEELEKYRFNLITRELMTFIWHEVADDYIEMIKHRLYGEDEESKLKAKVALYELLYNIMLLLAPFVPHITEELYHHIFKEKIGEKSVHLLQWPEYREDRIDEEAEKIGELAREIVSAMRKYKNSHGMPLNAKLKHVAIYATDSYEMLKVIEKDIAGTMNIERLEIVKGEPQLEEKVVEIKPIYKRIGPRYGKLVPKIVKHLQENAEEIGRRIKEEGKVEFEVEGQKVVLEKEDIEIKKAVFSEGEEVETAVVRDATILFF” as the sequence, how does the “soluble on expression in E. coli” value read?
Its value is “not soluble”.

For “MGSDKIHHHHHHAISVGNLTFSLPAEADFASKRVVNNNKSARLYRIAVSAIDRPGGSEVRSRPVDGELLFAPRQLVLQAGESEYFKFYYHGPRDNRERYYRVSFREIPTRNLTRRSPTGGEVSMEPVVVMDTILVVRPREVQFKWSFDKVAGTVSNTGNTWFKLLIKPGCDSTEEEGDAWYLRPGDVVRQPALRQPGNHYLVYNDKFIKISDTCPLKPRPAE”, which “soluble on expression in E. coli” value is on record?
Its value is “not soluble”.

Which “soluble on expression in E. coli” value does the source give for “MDMSLAEDAQETMATLAPDRFFFMSPYRSFTTSGCFARYTEPAVAGDSPDSPFQQKLRQQFAEAKSQGIANPILVGAIPFDTRQPSSLFIPMAWQSFSRQQKQRTARYFTDHQSLTVTARKAIPEQDAFEAMVARAAMLTATPDVDKVVLSRLIDITTDVAVDSGALLERLVAQNPVSYNFHVPLADGGVLLGASPELLLRKEGERFSSLPLAGSARRQPDDVLDREAGNRLLASQKDRHEHELVTQAMKQILRDRSTELQLPSSPQLITTPTLWHLGTPFEGKANAGENALTLACLLHPTPALSGFPHQVAKKLIAELEPFDRELFGGIVGWCDAEGNGEWVVTIRCAKLHGNQVRLFAGAGIVPASSPVGEWRETGVKLSTMLNVFGLH” here?
The value was “soluble”.

With “MSLCAVTLMACNTAPHSLASSLPVPDALLFPQVQPEYKVAPGDLLLIKVFQVDDLERQVRVDNTGRITLPLLGSIEVSNKGAAELETLIANRYRSDYLQDPQVSVFIQEANARRVTVTGAVTEPGTYPLIGSNLTLQQVIAQAKGINTLASLQNVVVFRTVKGQKMLARFDLARIERGKDPDPEIYPGDLVVVYRSDMRLFLRTLVEITPFVMVWRAYREGHHHHHH” as the sequence, how does the “soluble on expression in E. coli” value read?
Its value is “soluble”.

With “MGSSHHHHHHSSGLVSRRHMNIDMAALHAIEVDRGISVNELLETIKSALLTAYRHTQGHQTDARIEIDRKTGVVRVIARETDEAGNLISEWDDTPEGFGRIAATTARQVMLQRFRDAENERTYGEFSTREGEIVAGVIQRDSRANARGLVVVRIGTETKASEGVIPAAEQVPGESYEHGNRLRCYVVGVTRGAREPLITLSRTHPNLVRKLFSLEVPEIADGSVEIVAVAREAGHRSKIAVRSNVAGLNAKGACIGPMGQRVRNVMSELSGEKIDIIDYDDDPARFVANALSPAKVVSVSVIDQTARAARVVVPDFQLSLAIGKEGQNARLAARLTGWRIDIRGDAPPPPPGQPEPGVSRGMAHDR” as the sequence, how does the “soluble on expression in E. coli” value read?
The value was “soluble”.

With “KILAVTACPTGIAHTFMAADALKEKAKELGVEIKVETNGSSGIKHKLTAQEIEDAPAIIVAADKQVEMERFKGKRVLQVPVTAGIRRPQELIEKAMNQDAPIY” as the sequence, how does the “soluble on expression in E. coli” value read?
The value was “soluble”.

With “MARLTAYERRKFRVRNRIKRTGRLRLSVFRSLKHIYAQIIDDEKGVTLVSASSLALKLKGNKTEVARQVGRALAEKALALGIKQVAFDRGPYKYHGRVKALAEGAREGGLEF” as the sequence, how does the “soluble on expression in E. coli” value read?
Its value is “soluble”.

With “DKIIMDPHAVLGPVDPQLGQYPAPSIVRAVEKKGVDKVDDQTLILADVAEKAIRQVRDFIFNLLKDKYGEEKAKELAQVLTEGRWTHDYPITVEEAKKLGLNVSTDVPEEVYALMELYKQPIRQRGTVEFVPYPMKQEGK” as the sequence, how does the “soluble on expression in E. coli” value read?
The value was “not soluble”.

Which “soluble on expression in E. coli” value does the source give for “MAVEAVWESARILANSRFAVAFTGAGISAESGIPTFRGKDGLWSRFDPRDLATPEAFNRDPRLVWEWYSWRIERVLAAKPNKAHRLLARLEDSGVLKAVITQNVDGLHRRAGSRRVLELHGNVLRARCTRCGSKLEWREKPSNLPPSCPRCGGVLRPDVVWFGEPLDTSLLEEAFGLARRSDVMIIIGTSGAVDPAGLLPLAAKESGATLINVNPEPNRYSGVADIELRMRAVEFAERLSRAMGIDI” here?
Its value is “soluble”.

With “MGSDKIHHHHHHMWYKNNSFRFTRRFFMRVRVSAVFEQAGEILCMKYIYGGKEVFALPGGGVDKDIPLQEAIVNEWKEELGIKVDIGDIILIGEAPAGKRHPQTLHVVFEAREIRGTPKVRSDATHSLDVAWVPLEKLSSLPLYPDVGKQLSASFSEEPRRSVAFISNCMERGYW” as the sequence, how does the “soluble on expression in E. coli” value read?
The value was “not soluble”.

With “MENQDYTVRLTVQASPQEVFKQINRVTAWWTKNLQGDSEKLNDVFTVNFPGMHVSTQKLIECIPDKKVTWMVTDSHLTFIQRKTEWTDTTIQFDISRNVKHTEVLFTHKGLNPAIECYGDCAKGWDYFIKGSLFKLLTEGTGTPELEHHHHHH” as the sequence, how does the “soluble on expression in E. coli” value read?
The value was “soluble”.

For “MSSSLLASLSRLSLLQTRQIHQTIPAGSSVFMKRQKKIDPEVAKQRETRRRKRLEKDIRQMQKHSKKPKPVDELTLDVKSAKNIGERRRPRTELTLEQIDERAIALKDYTRSRLALQQEDDAWIRGAIESQRKALNELKMLKLELYEAAVQPAAKDLPLIVQGPSLTPPIRNYEAPDGDYIDTTRNWAS”, which “soluble on expression in E. coli” value is on record?
The value was “not soluble”.

With “QVQLLESGPELVEPGASVKVSCKASAYSITDFNIYWVKQSHGKNLEWIGGIDPHNGGPVYNQKFNGKATLTVDKSSSTAFMHLNSLTSEDSAVYYCAIFYGNFFDYWGPGTTVTVSSASTKGPSVFPLAPSSKSTSGGTAALGCLVKDYFPEPVTVSWNSGALTSGVHTFPAVLQSSGLYSLSSVVTVPSSSLGTQTYICNVNHKPSNTKVDKKVEPKSCDKTHT” as the sequence, how does the “soluble on expression in E. coli” value read?
The value was “soluble”.

For “MAHHHHHHMYLYHSNKCAIKKGIPFFRNVASICFLRKAQNGEEVKRRKVFCSAKFISTISEGRETGCGQANTDQPSTPLGSYTEKSSYKDIKIVENEKEGNDAAEEINQNDIIAVDFEGTNLGKYGKVCIMQVYTEERTREGTPPQSECISREKYYIFDLLKMSVIKSVKKIIENKKTLKLVHDCREDSSALYNQLGIKFENVYDTSRAHMLLMEKNKSNDIYQVSFLQLLNDYLGIKDECLSSIKKEMYKNEKIWQVRPLSKMSIIYALKNVKYLFPLYRIFDNMLPKKIVLEKSKDFVNYCLINSRYKLPVDLAKRGNIVQAMLVSKSMLNCVFKLNSTRKGIACTPSSVAQFRDVKVGDVVLCVVSNKSIDQKILYLCKHDDVFDYWNLKERPRGKFKPSIHESATDPMIQFCDEEQPA”, which “soluble on expression in E. coli” value is on record?
The value was “not soluble”.

Which “soluble on expression in E. coli” value does the source give for “MNVSHISAVSYYFARYIQEVLEVPVGIVVSTWGGSKIEAWMSRESIKPFSSIDLSILDNDAEVKNPTATPCVLYNGKIAPLTNFAVRGFLWYQGESNRDNADLYQSLMPAFVADLRAKWGRGELPFYFVQIAPFDYEGADGTSAARLREVQLQNMKDIPNSGMVTTMDVGHPVFIHPVDKETVGNRLAYWALAQTYGMKGFGYAPPVYKSMEIQENKIYINFYNAQRGLSPMWTSLKGFEIAGEDKVFYPAFAEIETTTARLAVSSDKVSHPVAVRYAYKNYVEASIFSIHGIPAAPFRTDNWLEHHHHHH” here?
The value was “not soluble”.

With “MGSSHHHHHHGKTIFVIVPTNEEQVAFLEALAKQDELNFDWQNPPTEPGQPVVILIPSDMVEWFLEMLKAKGIPFTVYVEEGGSENLYFQGGGGGGAATVTDLKNAIKNELYRIDIGMTDFYSSLSVSPTVQQQYCTAAITSRAAGLSLTMESLSSPYGVLATEYGFLIYKDTFVFGPSIKLIGASAWPNGTLTTDIQSGRHILVPYLTNTVVFVTGVIENEDGRQNILPMMRLMMVDSYLCAHMHMNVANLYRKTFRTAFAELA” as the sequence, how does the “soluble on expression in E. coli” value read?
The value was “not soluble”.

For “MGSDKIHHHHHHGYQFTDVVKVPATPVKNQASTGTCWCFATTSFMESELLRMGKGTYDLSEMFIVRQKYMNQLQDNYVRQGRGNIGQGSLSHTFMNAFNQVGIVPEEVYSGINYDSDRHNHAEMVKYIKAIATTAVDMKKRSPEYYKLIDNLFDTYLGKLPEKFTYQGKEYTPKTFAASLGLNMDDYIELTSFTHHPYYQKFEVEVPDNWEHAQMYNLPLNEMMEVADYALNNGYTVCWDGDVSEKGFSFKNGVAINPEVKKVEDYSTTDRARFEKMDEKERLEEVYKFEKPFPEVNVTPQVRQEGFEAFVTTDDHLMHLTGIAKDQNGTKYYITKNSWGTERNTFGGYLNMSDSFVRAKTIYIMVHKDAIPKAIKSKLGI”, which “soluble on expression in E. coli” value is on record?
Its value is “not soluble”.

With “MMQRRAVFGLFLLPLARGQGTCAPTPALTQGPYYLRDVPQREDLREGLPGVPLRLLLRVRDRACRPLQGARVDLWHTDALGRYSGVNAPGTFCRGWQATDERGEVAFLTLFPGWYPSRTPHLHLRVEAGGRVFATQLFFPEEVQRQVYALPPYRERGMPRVNNRQDGLFRADLLLRLEREGEAYRGAFVLTLPG” as the sequence, how does the “soluble on expression in E. coli” value read?
The value was “soluble”.

With “MEQRRVTDFFARRRPGPPRIAPPKLACRTPSPARPALRAPASATSGSRKRARPPAAPGRDQARPPARRRLRLSVDEVSSPSTPEAPDIPACPSPGQKIKKSTPAAGQPPHLTSAQDQDTISELASCLQRARELGARVRALKASAQDAGESCTPEAEGRPEEPCGEKAPAYQRFHALAQPGLPGLVLPYKYQVLAEMFRSMDTIVGMLHNRSETPTFAKVQRGVQDMMRRRFEERNVGQIKTVYPASYRFRQERSVPTFKDGTRRSDYQLTIEPLLEQEADGAAPQLTASRLLQRRQIFSQKLVEHVKEHHKAFLASLSPAMVVPEDQLTRWHPRFNVDEVPDIEPAALPQPPATEKLTTAQEVLARARNLISPRMEKALSQLALRSAAPSSPGSPRPALPATPPATPPAASPSALKGVSQDLLERIRAKEAQKQLAQMTRCPEQEQRLQRLERLPELARVLRSVFVSERKPALSMEVACARMVGSCCTIMSPGEMEKHLLLLSELLPDWLSLHRIRTDTYVKLDKAADLAHITARLAHQTRAEEGL” as the sequence, how does the “soluble on expression in E. coli” value read?
Its value is “soluble”.

Which “soluble on expression in E. coli” value does the source give for “MVAPGSVTSRLGSVFPFLLVLVDLQYEGAECGVNADVEKHLELGKKLLAAGQLADALSQFHAAVDGDPDNYIAYYRRATVFLAMGKSKAALPDLTKVIQLKMDFTAARLQRGHLLLKQGKLDEAEDDFKKVLKSNPSENEEKEAQSQLIKSDEMQRLRSQALNAFGSGDYTAAIAFLDKILEVCVWDAELRELRAECFIKEGEPRKAISDLKAASKLKNDNTEAFYKISTLYYQLGDHELSLSEVRECLKLDQDHKRCFAHYKQVKKLNKLIESAEELIRDGRYTDATSKYESVMKTEPSIAEYTVRSKERICHCFSKDEKPVEAIRVCSEVLQMEPDNVNALKDRAEAYLIEEMYDEAIQDYETAQEHNENDQQIREGLEKAQRLLKQSQKRDYYKILGVKRNAKKQEIIKAYRKLALQWHPDNFQNEEEKKKAEKKFIDIAAAKEVLSDPEMRKKFDDGEDPLDAESQQGGGGNPFHRSWNSWQGFNPFSSGGPFRFKFHFN” here?
Its value is “soluble”.
